Assay results published in IntAct's records for PubMed 20080707.

B1: Protein-glutamine gamma-glutamyltransferase 2 (Homo sapiens), P21980 (parent)
chain: MAEELVLERCDLELETNGRDHHTADLCREKLVVRRGQPFWLTLHFEGRNYEASVDSLTFSVVTGPAPSQEAGTKARFPLRDAVEEGDWTATVVDQQDCTLSLQLTTPANAPIGLYRLSLEASTGYQGSSFVLGHFILLFNAWCPADAVYLDSEEERQEYVLTQQGFIYQGSAKFIKNIPWNFGQFEDGILDICLILLDVNPKFLKNAGRDCSRRSSPVYVGRVVSGMVNCNDDQGVLLGRWDNNYGDGVSPMSWIGSVDILRRWKNHGCQRVKYGQCWVFAAVACTVLRCLGIPTRVVTNYNSAHDQNSNLLIEYFRNEFGEIQGDKSEMIWNFHCWVESWMTRPDLQPGYEGWQALDPTPQEKSEGTYCCGPVPVRAIKEGDLSTKYDAPFVFAEVNADVVDWIQQDDGSVHKSINRSLIVGLKISTKSVGRDEREDITHTYKYPEGSSEEREAFTRANHLNKLAEKEETGMAMRIRVGQSMNMGSDFDVFAHITNNTAEEYVCRLLLCARTVSYNGILGPECGTKYLLNLNLEPFSEKSVPLCILYEKYRDCLTESNLIKVRALLVEPVINSYLLAERDLYLENPEIKIRILGEPKQKRKLVAEVSLQNPLPVALEGCTFTVEGAGLTEEQKTVEIPDPVEAGEEVKVRMDLLPLHMGLHKLVVNFESDKLKAVKGFRNVIIGPA

Variants of: B1
Settings: with KRT19, P08727
Chain of KRT19, P08727 (P08727 whole entry): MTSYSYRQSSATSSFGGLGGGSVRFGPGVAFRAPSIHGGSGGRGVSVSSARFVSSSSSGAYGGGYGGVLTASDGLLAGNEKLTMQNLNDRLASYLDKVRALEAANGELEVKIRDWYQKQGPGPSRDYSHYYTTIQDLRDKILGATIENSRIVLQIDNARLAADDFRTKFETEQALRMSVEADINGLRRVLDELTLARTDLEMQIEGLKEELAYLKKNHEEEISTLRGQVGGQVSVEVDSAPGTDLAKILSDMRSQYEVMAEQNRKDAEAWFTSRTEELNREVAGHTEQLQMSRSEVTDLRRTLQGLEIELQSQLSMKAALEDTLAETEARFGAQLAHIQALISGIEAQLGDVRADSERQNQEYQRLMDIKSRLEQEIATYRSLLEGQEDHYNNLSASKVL

| effect of a mutation on the interaction | Variant |
| --- | --- |
| disrupting interaction | C277V |
